Assay results taken from patent US12319742 (SHATTUCK LABS, dated 2025).

Biological target: T1, biotinylated recombinant human TNFRSF25-His tagged (Acro #TN5-H52H3) (human, UniProt Q93038 25-199, biotinylated)
T1 construct: treated as the same protein; also called recombinant biotin-conjugated human TNFRSF25 protein; DR3
T1 sequence (looked up): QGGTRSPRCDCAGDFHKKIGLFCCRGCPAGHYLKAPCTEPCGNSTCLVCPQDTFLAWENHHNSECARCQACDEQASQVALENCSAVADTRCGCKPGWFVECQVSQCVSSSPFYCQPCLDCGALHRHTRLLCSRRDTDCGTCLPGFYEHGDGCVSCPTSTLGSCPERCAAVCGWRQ
Assay: BLI/Octet; biotinylated TNFRSF25 on streptavidin sensor, antibody in solution; 1:1 Langmuir model

- Kd: 0.14 nM
B1: 033_NH24 biparatopic antibody (bispecific antibody, human IgG1, kappa, L234A L235A)
heavy 1: not shown
light 1: AIQLTQSPSSLSASVGDRVTITCRASPGISSALAWYQQKPGKAPKLLMYDESSQESGVPSRFSGSGSGTDFTLTISSLQPEDFATYYCQQFNDYPLTFGGGTKVEIKRTVAAPSVFIFPPSDEQLKSGTASVVCLLNNFYPREAKVQWKVDNALQSGNSQESVTEQDSKDSTYSLSSTLTLSKADYEKHKVYACEVTHQGLSSPVTKSFNRGEC
heavy 2: EVQLVESGGGSVQPGGSLRLSCAASGFTFSSYGMSWIRQAPGKGLEWISYISSSGGHTYYADSVKGRFTISRDNAKNSLYLQMNSLRAEDTAVYYCARGSGSFDYWGQGTLVTVSSASTKGPSVFPLAPSSKSTSGGTAALGCLVKDYFPEPVTVSWNSGALTSGVHTFPAVLQSSGLYSLSSVVTVPSSSLGTQTYICNVNHKPSNTKVDKKVEPKSCDKTHTCPPCPAPEAAGGPSVFLFPPKPKDTLMISRTPEVTCVVVDVSHEDPEVKFNWYVDGVEVHNAKTKPREEQYNSTYRVVSVLTVLHQDWLNGKEYKCKVSNKALPAPIEKTISKAKGQPREPQVCTLPPSREEMTKNQVSLSCAVKGFYPSDIAVEWESNGQPENNYKTTPPVLDSDGSFFLVSKLTVDKSRWQQGNVFSCSVMHEALHNHYTQKSLSLSPGK
light 2: not shown
